Assay results reported in EP4269437A1 (Zhejiang Nanomab Technology Center Co. Ltd., dated 2023).

The binders below were run against T1, human PD-1.Fc (human, UniProt Q15116 25-170, limits assumed) (assay: SPR, antibody captured on protein A, PD-1.Fc in flow).
T1 construct: also called PD-1; Fc protein; PD-1.hFc; not shown: human IgG Fc fragment
T1 sequence (Q15116 25-170 limits assumed): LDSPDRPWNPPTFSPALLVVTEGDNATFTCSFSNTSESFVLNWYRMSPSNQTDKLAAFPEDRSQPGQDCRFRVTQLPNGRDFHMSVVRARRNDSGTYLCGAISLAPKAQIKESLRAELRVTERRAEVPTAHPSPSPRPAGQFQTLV

Kd | koff | kon | Binder
1.33 nM | 0.003 s⁻¹ | 2.26e+06 M⁻¹ s⁻¹ | NB211 (Fc fusion, not shown: IgG4 constant region of vector pCDNA3.4-IgG4) heavy: EVQVVETGGGLAQAGGSLRLSCAASGRTFSGYTVGWYRQSPGKEREFVAAISYSGGSTDYADSVKGRFTISRDNANNTVYLQMGSLKAEDTAVYYCNRVIRGTRDPSIYYVMDYWGKGTLVTVSS
10.4 nM | 0.000508 s⁻¹ | 49000 M⁻¹ s⁻¹ | NB215 (Fc fusion, not shown: IgG4 constant region of vector pCDNA3.4-IgG4) heavy: EVQVVESGGGLVQAGDSLRLSCAASGGTISGYEMGWFRQAPGKEREFVAGISRNGRSTGYSDSAKDRFTISRDNAKNTVYLQMNSLKPEDTAVYYCAAGLKADYGDSYVDTSTRNYNYWGQGTQVTVSS
6.21 nM | 0.000309 s⁻¹ | 49700 M⁻¹ s⁻¹ | NB171 (Fc fusion, not shown: IgG4 constant region of vector pCDNA3.4-IgG4) heavy: QVQLVESGGGLVQAGGSLRLSCAASGRTFSSYAMGWFRQALGKEREWIAGVSMSGRTTYYAAPVKDRFTISRDNAKNTVTLQMNSLKPEDTAVYYCAAGRAQAEIPIMRAQEYDSWGQGTQVTVSS
0.328 nM | 6.77e-05 s⁻¹ | 206000 M⁻¹ s⁻¹ | NB202 (Fc fusion, not shown: IgG4 constant region of vector pCDNA3.4-IgG4) heavy: EVQVVESGGGLVQAGGSLRLSCTASGDTRLASAMGWYRQAPGKERELVAAITNSGLTYYADSVEGRFTISRDSAKNTVYLQMNSLKPEDTAVYYCNAGAPPPGGLGYDESDYWGQGTQVTVSS
0.219 nM | 0.000323 s⁻¹ | 1.48e+06 M⁻¹ s⁻¹ | NB220 (Fc fusion, not shown: IgG4 constant region of vector pCDNA3.4-IgG4) heavy: QVQLQESGGGLLQAGDSLRLSCIVSGRTFSSYAIGWFRQAPGKEREFVAGINWSGRSQYYSESVKDRFTVSIDNAKNTVYLQMNSLKPEDTAVYYCAAERHLGVPTVRDDEYDDWGQGTQVTVSS
0.149 nM | 0.000306 s⁻¹ | 2.05e+06 M⁻¹ s⁻¹ | NB222 (Fc fusion, not shown: IgG4 constant region of vector pCDNA3.4-IgG4) heavy: QVQLVESGGGLVQAGGSLRLSCAASGGTFSNFNVGWFRQAPGKEREFVAASNWSAGTTHYSDSVKGRFTISRDNAANTAYLQMNSLRPDDTAVYYCNRVIRGTTYPDVYYGMDYWGKGTLVTVSS
0.292 nM | 6.88e-05 s⁻¹ | 236000 M⁻¹ s⁻¹ | NB734 (Fc fusion, not shown: IgG4 constant region of vector pCDNA3.4-IgG4) heavy: QVQLVETGGGLVQAGGSLRLSCAASGDTILFSAVGWHRQAPGKERELVAAITNSGVTYYADSVKGRFSISRDNAKNTVYLQMNSLKPEDTAVYYCNAGAPPPGEFGYDESDYWGQGTQVTVSS
6.39 nM | 0.000863 s⁻¹ | 135000 M⁻¹ s⁻¹ | NB223 (Fc fusion, not shown: IgG4 constant region of vector pCDNA3.4-IgG4) heavy: EVQLVESGGGLVQAGGSLRLSCAASGRTFSSYGMGWFRQAPGKEREFVAAVNWSNSSAYYADSVKDRFTISSDNAKSTIYLQMNSLKPEDTAVYYCRPYSDYVTYDPDDYDYWGQGTQVTVSS
83.1 nM | 0.000179 s⁻¹ | 2150 M⁻¹ s⁻¹ | NB173 (Fc fusion, not shown: IgG4 constant region of vector pCDNA3.4-IgG4) heavy: QVQLQESGGGLVQAGGSLRLSCAASGRSFNSYAMGWFRQAPGKEREFVAAISQNGGTQGYAEAVKDRFTISRDNTNKVVALQMNSLKPEDTAAYYCAADGDASDISYAPPRDYEYDYWGQGTQVTVSS
7.03 nM | 0.00092 s⁻¹ | 131000 M⁻¹ s⁻¹ | NB532 (Fc fusion, not shown: IgG4 constant region of vector pCDNA3.4-IgG4) heavy: QVQLVETGGGLVQAGGSLRLSCAASGRTFSSYNMGWFRQAPGKEREFVAAISWSGGSQGYAAAVKDRFTISRDNAKNTVYLQMNSLKAEDTAVYYCAAKYHSGSYYYTSIRPEEYDYWGQGTQVTVSS
2.75 nM | 0.000153 s⁻¹ | 55800 M⁻¹ s⁻¹ | NB147 (Fc fusion, not shown: IgG4 constant region of vector pCDNA3.4-IgG4) heavy: EVQVVESGGGVVQAGDSLRLSCVASGRTFSSVAMGWFRQAPGKEREFVAAISRSGGSAGYSDSVKDRSTISRDNAKNTVYLQMNSLKPEDTAVYFCAASELDFCSTLGCYDYWGQGIQVTFSS
